The source of these data is article PMC8880170.

For assay [1], the target named is SARS-CoV-2 nsp15 K290A (SARS-CoV-2). Nature of the assay: SEC; […] (20 mM Tris-HCl pH 8, 150 mM NaCl); […].
The target in assay [2] is SARS-CoV-2 nsp15 N164A (SARS-CoV-2). Nature of the assay: SEC; […] (20 mM Tris-HCl pH 8, 150 mM NaCl); […].

In the case of SARS-CoV-2 nsp15 K290A (enzyme), the stoichiometry N in assay [1] was 6.
In assay [2], SARS-CoV-2 nsp15 N164A (enzyme) yielded a stoichiometry N of 6.
